# Data: the supplement of paper PMC10567573
# B1: FOXJ1 (parent)
# chain: SAIYKWITDNFCYFRHADPTWQNS
# Variants of: B1
# Assay: protein stability index of a GFP-peptide fusion (GPS, HEK-293T) (PSI 1-6); higher = more stable
# Conditions: c terminus: a fixed tail appended
# 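Further: lentivirally expressed fusions sorted by FACS into six bins by GFP to DsRed ratio, PSI derived from sequencing read proportions per bin multiplied by bin number.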
row,Variant,protein stability index
1,SAIYKWITDNFCQFRHADPTWQNS,1.57
2,SAIYKWITDNFCHFRHADPTWQNS,3.23
3,SAIYKWITDNFCPFRHADPTWQNS,2.18
4,SAIYKWITDNFCFFRHADPTWQNS,2.47
5,SAIYKWITDNFCGFRHADPTWQNS,3.62
6,SAIYKWITDNFCVFRHADPTWQNS,3
7,SAIYKWITDNFCLFRHADPTWQNS,1.87
8,SAIYKWITDNFCKFRHADPTWQNS,1.86
9,SAIYKRITDNFCYFRHADPTWQNS,1.86
10,SAIYKYITDNFCYFRHADPTWQNS,3.11
11,SAIYKTITDNFCYFRHADPTWQNS,1.43
12,SAIYKMITDNFCYFRHADPTWQNS,3.3
13,SAIYKFITDNFCYFRHADPTWQNS,2.43
14,SAIYKIITDNFCYFRHADPTWQNS,3.22
15,SAIYKWITDNFCYFRHANPTWQNS,3.12
16,SAIYKWITDNFCYFRHAIPTWQNS,2.82
17,SAIYKWITDNFCYFRHAYPTWQNS,2.95
18,SAIEKWITDNFCYFRHADPTWQNS,2.99
19,SAISKWITDNFCYFRHADPTWQNS,2.68
20,SAICKWITDNFCYFRHADPTWQNS,2.04
21,SAIYKWIDDNFCYFRHADPTWQNS,3.49
22,SAIYKWINDNFCYFRHADPTWQNS,3.01
23,SAIYKWIADNFCYFRHADPTWQNS,3.42
24,SAIYKWIFDNFCYFRHADPTWQNS,3.33

row,Variant,protein stability index
1,SAIYKWITDNFCYDRHADPTWQNS,2.64
2,SAIYKWITDNFCYARHADPTWQNS,2.32
3,SAIYKWITDNFCYSRHADPTWQNS,2.13
4,SAIYKWITDNFCYFGHADPTWQNS,3.31
5,SAIYKWITDNFCYFNHADPTWQNS,3.46
6,SAIYKWITDNFCYFMHADPTWQNS,2.66
7,SAIYKWITDNFCYFIHADPTWQNS,2.32
8,SAIYKWITDNFCYFAHADPTWQNS,1.81
9,SAIYKWITDNFCYFWHADPTWQNS,2.97
10,SAIYKWITDHFCYFRHADPTWQNS,2.3
11,SAIYKWITDVFCYFRHADPTWQNS,1.74
12,SAIYKWITDLFCYFRHADPTWQNS,3.56
13,SAIYKWITDPFCYFRHADPTWQNS,2.13
14,SAIYKWITDCFCYFRHADPTWQNS,2.08
15,SAIYKWITDQFCYFRHADPTWQNS,2.11
16,SAFYKWITDNFCYFRHADPTWQNS,1.87
17,SAEYKWITDNFCYFRHADPTWQNS,1.67
18,SAQYKWITDNFCYFRHADPTWQNS,2.1
19,SALYKWITDNFCYFRHADPTWQNS,2.36
20,SASYKWITDNFCYFRHADPTWQNS,1.21
21,SAIYKWITDNMCYFRHADPTWQNS,3.18
22,SAIYKWITDNVCYFRHADPTWQNS,3.51
23,SAIYKWITDNECYFRHADPTWQNS,1.89
24,SAIYKWITDNYCYFRHADPTWQNS,3.4

row,Variant,protein stability index
1,SAIYKWITDNHCYFRHADPTWQNS,2.71
2,SAIYKWITDNSCYFRHADPTWQNS,3.59
3,SAIYKWITDNPCYFRHADPTWQNS,1.79
4,SAIYKWITDNRCYFRHADPTWQNS,3.03
5,SIIYKWITDNFCYFRHADPTWQNS,3.56
6,SVIYKWITDNFCYFRHADPTWQNS,2.4
7,SQIYKWITDNFCYFRHADPTWQNS,2.49
8,SAIYKWITDNFEYFRHADPTWQNS,1.95
9,SAIYKWITDNFPYFRHADPTWQNS,1.97
10,SAIYKWITDNFRYFRHADPTWQNS,1.81
11,SAIYKWITDNFTYFRHADPTWQNS,3.14
12,SAIYKWITDNFDYFRHADPTWQNS,1.59
13,SAIYKWITDNFIYFRHADPTWQNS,2.77
14,TAIYKWITDNFCYFRHADPTWQNS,3.01
15,QAIYKWITDNFCYFRHADPTWQNS,2.31
16,IAIYKWITDNFCYFRHADPTWQNS,4.71
17,HAIYKWITDNFCYFRHADPTWQNS,2.92
18,SAIYKWITDNFCYFRRADPTWQNS,5.03
19,SAIYKWITDNFCYFRTADPTWQNS,2.32
20,SAIYKWITDNFCYFRYADPTWQNS,2.27
21,SAIYKWITDNFCYFRDADPTWQNS,2.33
22,SAIYKWITDNFCYFRSADPTWQNS,3.5
23,SAIYKWITDNFCYFRQADPTWQNS,3.32
24,SAIYKWITDNFCYFRAADPTWQNS,2.55

row,Variant,protein stability index
1,SAIYKWITDNFCYFRWADPTWQNS,1.82
2,SAIYPWITDNFCYFRHADPTWQNS,1.26
3,SAIYCWITDNFCYFRHADPTWQNS,2.24
4,SAIYSWITDNFCYFRHADPTWQNS,3.33
5,SAIYEWITDNFCYFRHADPTWQNS,1.81
6,SAIYVWITDNFCYFRHADPTWQNS,3.36
7,SAIYKWITDNFCYFRHADPTWQHS,4.01
8,SAIYKWITDNFCYFRHADPTWQRS,3.24
9,SAIYKWITDNFCYFRHADPTWQSS,2.62
10,SAIYKWITDNFCYFRHADPFWQNS,1.78
11,SAIYKWITDNFCYFRHADCTWQNS,2.7
12,SAIYKWITDNFCYFRHADETWQNS,3.59
13,SAIYKWSTDNFCYFRHADPTWQNS,2.81
14,SAIYKWTTDNFCYFRHADPTWQNS,1.66
15,SAIYKWPTDNFCYFRHADPTWQNS,2.1
16,SAIYKWQTDNFCYFRHADPTWQNS,1.36
17,SAIYKWITDNFCYFRHSDPTWQNS,2.61
18,SAIYKWITDNFCYFRHRDPTWQNS,3.34
19,SAIYKWITDNFCYFRHNDPTWQNS,3.14
20,SAIYKWITDNFCYFRHYDPTWQNS,2.86
21,SAIYKWITDNFCYFRHTDPTWQNS,2.16
22,SAIYKWITDNFCYFRHMDPTWQNS,4.41
